# Where a SMILES comes first, the peptide text is derived from it. Bridges are numbered along the chain shown (N, C = ends). [ ]: non-standard residue; d: D form. The star is where a group is joined. DOTA = O=C(O)CN1CCN(CC(=O)O)CCN(CC(=O)*)CCN(CC(=O)O)CC1; 2Nal = N[C@@H](Cc1ccc2ccccc2c1)C(=O)O; Cit = NC(=O)NCCC[C@H](N)C(=O)O
# Tests used:
# [1] = system: U87-CXCR4 + cells; assay: MTS cell viability assay; assay type: cell-based; conditions: 2 h
# Experimental: Cell viability assays were performed using increasing activity concentrations of the radiolabelled peptides (1 to 20 MBq/mL), incubated with U87-CXC4 + cells for four hours at 37 °C, 5% CO2. After the incubation period, cells were washed twice with PBS and replenished with complete media. After five and seven days of treatment, the cell media was removed and MTS (3-(4,5-dimethylthiazol-2-yl)-5-(3-carboxymethoxyphenyl)-2-(4-sulfophenyl)-2 H-tetrazolium) reagent added, prepared according to manufacturer’s instructions (CellTiter 96® AQueous One Solution Cell Proliferation Assay, Promega, Wisconsin, United States). To determine the effect of the radiation originating from unbound radiolabelled peptides, cells were treated with equivalent activity concentrations of [^177Lu]Lu-DTPA. Triton X-100 (0.1%) was used as a positive control. Vehicle includes the NaOAc radiolabeling buffer at the concentration used for the 20 MBq/mL peptide solutions. The cells were incubated for 0.5–1 h with the MTS reagent at 37 °C, 5% CO2. Absorbance was measured at 490 nm using a BioTek Synergy H1 plate reader (Agilent Technologies, Mechelen, Belgium). Cell viability was normalised to the vehicle and calculated as percentage of cell viability.
# [2] = biological target: T1, CXCR4 (Homo sapiens, UniProt P61073); assay: In vitro autoradiography saturation binding on U87-CXCR4 + tumour slices; conditions: sections of subcutaneous U87-CXCR4 + tumours; 0.1–1000 nM; NSB with 100 µM AMD11070; N = 3
# T1 construct: expressed in transfected cells; host or cells: U87-MG (U87-CXCR4+), kept under blasticidin selection
# T1 sequence (P61073 whole entry): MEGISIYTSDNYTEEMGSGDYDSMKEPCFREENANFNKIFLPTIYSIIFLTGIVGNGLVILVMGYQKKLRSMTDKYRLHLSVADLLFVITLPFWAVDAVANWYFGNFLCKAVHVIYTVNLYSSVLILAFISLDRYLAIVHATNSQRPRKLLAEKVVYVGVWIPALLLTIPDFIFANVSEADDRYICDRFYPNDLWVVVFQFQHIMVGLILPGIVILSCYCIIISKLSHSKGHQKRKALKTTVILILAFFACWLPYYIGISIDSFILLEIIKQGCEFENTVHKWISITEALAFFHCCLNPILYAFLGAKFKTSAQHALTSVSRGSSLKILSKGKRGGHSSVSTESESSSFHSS
# [3] = in vivo; design: species or system BALB/c nude mice; conditions: mouse; for tissue uptake dose at 4 h / SUV at 4 h: BALB/c nude, iv, total radioactivity; for tissue uptake dose at 4 h: %IA
# Experimental: For the generation of the subcutaneous GBM xenograft model, BALB/c nude mice (between 8 and 12 weeks old) were anesthetised with 2.5% isoflurane in O2 at a flow rate of 0.2 L/min and subcutaneously injected on the right shoulder with 3 × 10^6 U87-CXCR4 + cells resuspended in a 1:1 mixture of PBS and Cultrex BME (R&D Systems, Bio-Techne, Minnesota, US). Tumours were left to grow for ten days before the start of the experiment. Tumour volumes were calculated as length × width × height. Three days before the experiment, the mean tumour volumes of all mice were 255 ± 119 mm^3.
# All animals were anesthetised with 2.5% isoflurane in O2 at a flow rate of 1 L/min and intravenously (IV) injected with 1.5 MBq of [^177Lu]Lu-POL3026 via a tail vein (radiolabelled with a Am of 53.1 ± 0.55 MBq/nmol). The mice were sacrificed by an overdose of pentobarbital (200 µL of 60 mg/mL) at 1-, 4-, 24- and 168 h post-injection (p.i.) (n = 3–4 per time point), followed by cardiac puncture. Organs of interest were collected in tarred tubes and weighed. The activity in the different organs was measured in the automated gamma counter described above. For the calculation of the total activity in the blood, bone, and muscle, the masses were assumed to be 7, 12 and 40% of the total body mass, respectively. Data is shown as standardised uptake value (SUV), calculated using the following equation:
# SUV = [Activity in organ (cpm) / Organ weight (g)] / [(Injected activity (cpm) / Total body weight (g)].
# A separate study was performed to evaluate the specificity of the uptake of [^177Lu]Lu-POL3026 in U87-CXCR4 + subcutaneous tumours and the rest of the organs. This was done by creating two groups (n = 4 / group), one group pre-injected intraperitoneally (IP) with 5 mg/kg of AMD11070, 30 min before the IV injection of [^177Lu]Lu-POL3026, while the other group was pre-injected with the DMSO vehicle. Mice from both groups were sacrificed 4 h post-injection and organs were collected as previously described.
smiles,measurement,setting,value
"N=C(N)NCCC[C@@H]1NC(=O)[C@@H]2CSSC[C@H](NC(=O)[C@H](Cc3ccc4ccccc4c3)NC(=O)[C@H](CCCNC(=N)N)NC(=O)[C@H](CCCNC(=N)N)NC(=O)[C@H]3CCCN3C(=O)CNC1=O)C(=O)N[C@@H](Cc1ccc(O)cc1)C(=O)N[C@@H](CCC(N)=O)C(=O)N[C@@H](CCCCNC(=O)CN1CCN(CC(=O)O)CCN(CC(=O)O)CCN(CC(=O)O)CC1)C(=O)N1CCC[C@@H]1C(=O)N1CCC[C@H]1C(=O)N[C@@H](Cc1ccc(O)cc1)C(=O)N[C@@H](CCCNC(=N)N)C(=O)N[C@@H](CCCNC(N)=O)C(=O)N2 [[^177Lu]Lu-DOTA-POL3026, metal not drawn] (cyclo(RR[2Nal]CYQK(DOTA)[dP]PYR[Cit]CRG[dP]); disulfide 4-13)",cell viability,[1],52.3 ± 9.9%
same,Kd,[2],52 nM
same,tissue uptake dose at 4 h,"[3]; 5 mg/kg, Blood",0.33 %ID
same,tissue uptake dose at 4 h,"[3]; 5 mg/kg, Blood on tissue paper",0.97 %ID
same,tissue uptake dose at 4 h,"[3]; 5 mg/kg, Bone",5.16 %ID
same,tissue uptake dose at 4 h,"[3]; 5 mg/kg, Brain",0.01 %ID
same,tissue uptake dose at 4 h,"[3]; 5 mg/kg, Carcass",9.91 %ID
same,tissue uptake dose at 4 h,"[3]; 5 mg/kg, Heart",0.03 %ID
same,tissue uptake dose at 4 h,"[3]; 5 mg/kg, Intestines",1.17 %ID
same,tissue uptake dose at 4 h,"[3]; 5 mg/kg, Kidneys",5.44 %ID
same,tissue uptake dose at 4 h,"[3]; 5 mg/kg, Liver",33.8 %ID
same,tissue uptake dose at 4 h,"[3]; 5 mg/kg, Lungs",0.35 %ID
same,tissue uptake dose at 4 h,"[3]; 5 mg/kg, Muscle",1.02 %ID
same,tissue uptake dose at 4 h,"[3]; 5 mg/kg, Pancreas",0.02 %ID
same,tissue uptake dose at 4 h,"[3]; 5 mg/kg, Spleen",0.51 %ID
same,tissue uptake dose at 4 h,"[3]; 5 mg/kg, Stomach",0.06 %ID
same,tissue uptake dose at 4 h,"[3]; 5 mg/kg, Tail",3.44 %ID
same,tissue uptake dose at 4 h,"[3]; 5 mg/kg, Tumour",1.68 %ID
same,SUV at 4 h,"[3]; 5 mg/kg, Blood",0.05 SUV
same,SUV at 4 h,"[3]; 5 mg/kg, Bone",0.43 SUV
same,SUV at 4 h,"[3]; 5 mg/kg, Heart",0.06 SUV
same,SUV at 4 h,"[3]; 5 mg/kg, Kidneys",3.74 SUV
same,SUV at 4 h,"[3]; 5 mg/kg, Liver",5.76 SUV
same,SUV at 4 h,"[3]; 5 mg/kg, Lungs",0.57 SUV
same,SUV at 4 h,"[3]; 5 mg/kg, Muscle",0.03 SUV
same,SUV at 4 h,"[3]; 5 mg/kg, Pancreas",0.03 SUV
same,SUV at 4 h,"[3]; 5 mg/kg, Spleen",1.41 SUV
same,SUV at 4 h,"[3]; 5 mg/kg, Tumour",1.59 SUV
same,tissue uptake dose at 4 h,"[3]; 1.5 MBq, Blood",2.91 %ID
same,tissue uptake dose at 4 h,"[3]; 1.5 MBq, Blood on tissue paper",1.34 %ID
same,tissue uptake dose at 4 h,"[3]; 1.5 MBq, Bone",6.85 %ID
same,tissue uptake dose at 4 h,"[3]; 1.5 MBq, Brain",0.02 %ID
same,tissue uptake dose at 4 h,"[3]; 1.5 MBq, Carcass",20.3 %ID
same,tissue uptake dose at 4 h,"[3]; 1.5 MBq, Heart",0.16 %ID
same,tissue uptake dose at 4 h,"[3]; 1.5 MBq, Intestines",2.43 %ID
same,tissue uptake dose at 4 h,"[3]; 1.5 MBq, Kidneys",5.12 %ID
same,tissue uptake dose at 4 h,"[3]; 1.5 MBq, Liver",33.5 %ID
same,tissue uptake dose at 4 h,"[3]; 1.5 MBq, Lungs",1.23 %ID
same,tissue uptake dose at 4 h,"[3]; 1.5 MBq, Muscle",3.35 %ID
same,tissue uptake dose at 4 h,"[3]; 1.5 MBq, Pancreas",0.12 %ID
same,tissue uptake dose at 4 h,"[3]; 1.5 MBq, Spleen",1.74 %ID
same,tissue uptake dose at 4 h,"[3]; 1.5 MBq, Stomach",0.18 %ID
same,tissue uptake dose at 4 h,"[3]; 1.5 MBq, Tail",2.77 %ID
same,tissue uptake dose at 4 h,"[3]; 1.5 MBq, Tumour",3.35 %ID
same,SUV at 4 h,"[3]; 1.5 MBq, Blood",0.42 SUV
same,SUV at 4 h,"[3]; 1.5 MBq, Bone",0.57 SUV
same,SUV at 4 h,"[3]; 1.5 MBq, Brain",0.01 SUV
same,SUV at 4 h,"[3]; 1.5 MBq, Heart",0.37 SUV
same,SUV at 4 h,"[3]; 1.5 MBq, Kidneys",3.84 SUV
same,SUV at 4 h,"[3]; 1.5 MBq, Liver",6.18 SUV
same,SUV at 4 h,"[3]; 1.5 MBq, Lungs",2.29 SUV
same,SUV at 4 h,"[3]; 1.5 MBq, Muscle",0.08 SUV
same,SUV at 4 h,"[3]; 1.5 MBq, Pancreas",0.15 SUV
same,SUV at 4 h,"[3]; 1.5 MBq, Spleen",4.83 SUV
same,SUV at 4 h,"[3]; 1.5 MBq, Tumour",2.58 SUV
same,"SUV, Brain","[3]; ip, 5 mg/kg",0.00

# Source: article PMC11250742, “Preclinical evaluation of CXCR4 peptides for targeted radionuclide therapy in glioblastoma” (EJNMMI Radiopharmacy and Chemistry, 2024)
